Test results from patent US20050069530A1.

Columns and labels:
Assay in all cases: cell-based or functional assay
[1] = target: crotoxin B, P62022
[2] = target: T1, human recombinant cytosolic PLA2 (cPLA2) (human), P47712
T1 chain: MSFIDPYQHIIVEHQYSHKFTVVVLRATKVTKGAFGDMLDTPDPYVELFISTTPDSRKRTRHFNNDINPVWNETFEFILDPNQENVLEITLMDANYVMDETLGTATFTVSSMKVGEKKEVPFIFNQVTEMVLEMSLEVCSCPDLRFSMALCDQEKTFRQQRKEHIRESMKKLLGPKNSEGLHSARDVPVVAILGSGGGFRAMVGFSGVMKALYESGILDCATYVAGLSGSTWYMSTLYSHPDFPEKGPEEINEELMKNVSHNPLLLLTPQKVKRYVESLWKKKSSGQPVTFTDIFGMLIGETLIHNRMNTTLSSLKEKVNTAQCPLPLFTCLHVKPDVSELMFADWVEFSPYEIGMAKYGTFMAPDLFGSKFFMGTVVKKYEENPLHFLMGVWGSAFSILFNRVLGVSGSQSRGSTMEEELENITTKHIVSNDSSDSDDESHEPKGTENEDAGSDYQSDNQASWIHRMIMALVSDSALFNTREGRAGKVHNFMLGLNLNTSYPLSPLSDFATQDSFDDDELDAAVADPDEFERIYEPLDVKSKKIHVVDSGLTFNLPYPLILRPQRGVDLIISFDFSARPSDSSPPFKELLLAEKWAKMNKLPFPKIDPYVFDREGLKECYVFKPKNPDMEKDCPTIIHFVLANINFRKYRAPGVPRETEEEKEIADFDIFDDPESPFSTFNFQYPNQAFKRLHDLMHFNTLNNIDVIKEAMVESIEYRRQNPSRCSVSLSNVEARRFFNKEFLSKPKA

[3] = target: T2, human type IIA sPLA2 (human), P14555
T2 chain: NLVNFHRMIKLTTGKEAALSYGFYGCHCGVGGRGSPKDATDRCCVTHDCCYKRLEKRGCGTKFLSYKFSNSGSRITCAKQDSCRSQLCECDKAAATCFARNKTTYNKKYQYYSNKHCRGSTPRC

YRRVDIGLRVWHDLGVG (modifications not checked) [Scrambled P-NT.II] showed an IC50 of PLA2 enzyme inhibition (labeled E. coli membrane assay) [1] of over 250 µM.

LGRVDIHVWDGVYIRGR (modifications not checked) [P-NT.II] gave an IC50 of PLA2 enzyme inhibition (labeled E. coli membrane assay) [1] of 4.9 µM, a selectivity of enzyme inhibition, sPLA2 over cPLA2 [2] of 5 fold and an IC50 of sPLA2 enzyme inhibition (3H-labelled E. coli membranes as substrate) [3] of 5.3 µM.
